In patent US20100120118A1:

System: purified MrpC

## N-terminal histidine-tagged MazF-mx (H-MazF)
  gel-shift assay of MrpC on the mazF-mx promoter (PmazF) after preincubation with H-MazF: Binding of MrpC to the promoter region was found to be inhibited when MrpC was preincubated with MazF-mx
